From article PMC7784741 come the findings set out here.

Experiment [1] has as its target YAP-binding domain of TEAD from Anabas testudineus (residues 211-428) (Anabas testudineus). The experiment is described as follows: SPR.
In experiment [2] the target is YAP-binding domain of human TEAD4, TEAD4 217-434 (human) (UniProt Q15561). The experiment is described as follows: SPR. (In general: In SPR one partner is held on a chip, and binding of the other changes the refractive index at the surface.)
Sequence of YAP-binding domain of human TEAD4, TEAD4 217-434 (human) (Q15561 217-434): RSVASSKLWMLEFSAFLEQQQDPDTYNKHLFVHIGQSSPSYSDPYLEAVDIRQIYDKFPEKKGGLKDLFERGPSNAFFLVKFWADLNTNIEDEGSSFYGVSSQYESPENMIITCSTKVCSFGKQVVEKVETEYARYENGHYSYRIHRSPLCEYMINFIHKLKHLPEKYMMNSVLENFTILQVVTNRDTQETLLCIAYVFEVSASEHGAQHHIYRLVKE

By Kd is commonly meant the equilibrium constant for the complex coming apart. A higher Kd goes with weaker binding. Turning to “synthetic peptide of the TEAD-binding domain of YAP, Anabas testudineus_1 (residues 21-59)”, the Kd in experiment [1] was 99 nM; in experiment [2], 71 nM.

Consider “synthetic peptide of the TEAD-binding domain of YAP, Anabas testudineus_2 (residues 21-60)”, for which, in experiment [1], the Kd was 60 nM.
